Test [1] concerns the target CEACAM1 in a cancer specimen having a high value of CEACAM1 (human) (UniProt P13688). In words: CLEIA sandwich without denaturation: 283324 on magnetic particles, biotin-labeled BAF2244 as detector; competitor AF2244 30 ug/mL added to a cancer specimen (FIG. 12).
Test [2] addresses commercially available recombinant antigen CEACAM1 (R&D Systems) (UniProt P13688). In words: ELISA on CEACAM1 coated in PBS; antibody 0.1 ug/mL with against without 10 ug/mL competitor polyclonal AF2244.

Substance “anti-CEACAM1 antibody 283324 (R&D Systems)” displayed a quantitative value with the polyclonal antibody added (+) against not added (-) in test [1] of 3%. In test [2], the binding rate by addition of anti-CEACAM1 polyclonal antibody came to 41%. In the case of “biotin-labeled anti-CEACAM1 antibody BAF2244 (R&D Systems)”, the binding rate by addition of anti-CEACAM1 polyclonal antibody in test [2] turned out to be 44.8%.

The values are drawn from patent US20260194525A1.
